Assay results reported in patent publication US20210317213A1 (AMBRX, published 2021).

How the values were obtained:
[1] = biological target: Folate receptor-alpha (FOLR1) (human) (UniProt P15328); assay: summary table; cell binding through the folate moiety
human CD3 [2] = biological target: T1, human CD3 (human, UniProt P07766 23-207); assay: cell binding, human PBMC
T1 construct: whole, on cells; also called CD3 on human T-cells

[3] = biological target: Folate receptor-alpha (FOLR1) (human) (UniProt P15328); assay: cell binding, SKOV-3 cells with 50 nM SFA; through the folate moiety
[4] = biological target: Folate receptor-alpha (FOLR1) (human) (UniProt P15328); assay: summary table; FRα affinity over CD3 affinity
human CD3 [5] = biological target: T1, human CD3; assay: cell binding, human CD3, 50 nM SFA present
human CD3 [6] = biological target: T1, human CD3; assay: cell binding, human T-cells; parameters: Bmax: unit not given here
cyno CD3 [7] = biological target: T2, cyno CD3 (cyno (cynomolgus monkey), UniProt Q95LI5 22-198); assay: cell binding, cynomolgus T-cells
T2 construct: whole, on cells; also called CD3 on Cynomolgus T-cells
T2 sequence (Q95LI5 22-198): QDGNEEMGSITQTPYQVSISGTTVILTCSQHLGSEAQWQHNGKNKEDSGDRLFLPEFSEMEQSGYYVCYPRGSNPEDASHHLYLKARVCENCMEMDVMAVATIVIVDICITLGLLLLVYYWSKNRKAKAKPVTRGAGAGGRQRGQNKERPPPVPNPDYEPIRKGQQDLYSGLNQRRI

human CD3 [8] = biological target: T1, human CD3; assay: summary table; cell binding EC50, human PBMC
[9] = biological target: Folate receptor-alpha (FOLR1) (human) (UniProt P15328); assay: cell binding, FOLRα-expressing KB cells; through the folate moiety
human CD3 [10] = biological target: T1, human CD3; assay: cell binding, activated human PBMC
cyno CD3 [11] = biological target: T2, cyno CD3; assay: cell binding, activated cyno PBMC
human CD3 [12] = biological target: T1, human CD3; assay: cell binding, human CD3 (activated human PBMC); human CD3 (first number of the cell)
Description: (§1) Testing for CD3 binding with activated human and cyno PBMC: To distinguish between the humanized anti-CD3 antibodies generated, binding to human CD3 was tested using activated human PBMCs (n=2). The activation of PBMCs and subsequent fluorescence-based CD3 binding assays were followed as described previously (see for example, Angew Chem Int Ed Engl, 52(46):12101-12104, 2013). […] The binding of the remaining 6 humanized antibodies to both human and cyno CD3 using activated human and cyno PBMCs, respectively, was titrated. […] The six (6) humanized anti-CD3 antibodies were obtained as follows: Fab1, Fab2 and Fab3 wildtype were generated by combination of LC ((vL1.2+CL); (SEQ.ID. NO:7)) and HC ((vH1.2+CH1); (SEQ.ID. NO:1)), ((vH1.1+CH1); (SEQ.ID. NO:2)) and ((vH1.0+CH1); (SEQ.ID. NO:3)) respectively. Fab4, Fab 5 and Fab6 wildtype were generated by combination of LC ((vL1.1+CL); (SEQ.ID. NO:8)) and HC ((vH1.2+CH1); (SEQ.ID. NO:1)), ((vH1.1+CH1); (SEQ.ID. NO:2)) and ((vH1.0+CH1); (SEQ.ID. NO:3)) respectively.
(§2) Binding of Folate-conjugated Fabs to human and cyno CD3: Binding of E. coli produced and Folate-conjugated low-affinity variants of humanized anti-CD3 Fabs was performed as described in the above Examples.

cyno CD3 [13] = biological target: T2, cyno CD3; assay: cell binding, cyno CD3 (activated cyno PBMC); cyno CD3 (second number of the cell)
Description: as §1, §2

cyno CD3 [14] = biological target: T2, cyno CD3; assay: cell binding, activated cyno PBMC; E. coli protein
human CD3 [15] = biological target: T1, human CD3; assay: cell binding, activated human PBMC; E. coli protein
cyno CD3 [16] = biological target: T2, cyno CD3; assay: flow cytometry (MFI), 11-point titration on cyno CD3 (activated cyno PBMC), HEK293 culture supernatant
Description: (§3) Screening for human and cyno CD3 binding: HEK293 culture supernatants were directly used to test for binding to human CD3 in the screening phase. In Round 1 experiment, initially 35 clones were tested for binding to human CD3 at three different protein concentrations, and 13 were selected for detailed binding assays to both human and cyno CD3. An 11-point binding titration curve was generated to both human (FIG. 4A) and cyno CD3 (FIG. 4B) for each clone. […] Similarly, 43 clones were screened in Round 2 experiment. After two-stage screening as described above for Round 1, 11 low-affinity variants were obtained, of which 4 are represented as shown in FIGS. 5A-5B

human CD3 [17] = biological target: T1, human CD3; assay: flow cytometry (MFI), 11-point titration on human CD3 (activated human PBMC), HEK293 culture supernatant
Description: as §3

Chain of Folate receptor-alpha (FOLR1) (human) (P15328 25-234): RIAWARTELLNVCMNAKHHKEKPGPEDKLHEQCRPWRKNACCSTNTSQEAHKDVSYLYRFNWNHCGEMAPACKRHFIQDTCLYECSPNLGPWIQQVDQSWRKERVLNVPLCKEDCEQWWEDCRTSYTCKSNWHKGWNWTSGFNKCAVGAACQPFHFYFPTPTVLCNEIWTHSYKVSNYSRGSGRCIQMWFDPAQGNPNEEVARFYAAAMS
T1 sequence (P07766 23-207): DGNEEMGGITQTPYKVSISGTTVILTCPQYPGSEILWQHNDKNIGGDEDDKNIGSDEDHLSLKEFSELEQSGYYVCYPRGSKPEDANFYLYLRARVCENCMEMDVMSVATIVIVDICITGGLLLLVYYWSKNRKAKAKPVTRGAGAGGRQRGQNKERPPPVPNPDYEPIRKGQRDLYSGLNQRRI

B1: Fab1-HK129-LL157-BiFolate (Fab, V domains shown)
VH: EVQLVESGGGLVQPGGSLRLSCAASGFTFNTYAMNWVRQAPGKGLEWVARIRSKYNNYATYYADSVKDRFTISRDDSKNILYLQMNSLKTEDTAVYYCVRHGNFGNSYVSWFAYWGQGTLVTVSS
VL: QAVVTQEPSLTVSPGGTVTLTCRSSTGAVTTSNYANWVQQKPGQAPRGLIGGTNKRAPGTPARFSGSLLGGKAALTLSGAQPEDEAEYYCALWYSNLWVFGGGTKLTVLG
modifications: pAF at LL157 (Kabat) conjugated to folate (oxime); pAF at HK129 (Kabat) conjugated to folate (oxime)
notes: From E. coli; carries two folates
FRα binding affinity [1]: 19.8 nM
EC50 (human CD3 [2]): 1.93 nM
Fold increase binding (vs Fab1-HK129-Folate) (human CD3 [2]): 1.3 fold
EC50 [3]: 19.8 nM
Fold increase binding (vs Fab1-HK129-Folate) [3]: 2.2 fold
Affinity ratio (FRα:CD3) [4]: 10
EC50 (human CD3 [5]): 2.37 nM
Bmax (human CD3 [6]): 24600
Kd (human CD3 [6]): 0.669 nM
Bmax (cyno CD3 [7]): 19600
Kd (cyno CD3 [7]): 1 nM
CD3 binding affinity (human CD3 [8]): 1.93 nM
Bmax [9]: 74400
Kd [9]: 0.85 nM

B2: Fab1-HK129-5KPEG-Folate (Fab, V domains shown)
VH: EVQLVESGGGLVQPGGSLRLSCAASGFTFNTYAMNWVRQAPGKGLEWVARIRSKYNNYATYYADSVKDRFTISRDDSKNILYLQMNSLKTEDTAVYYCVRHGNFGNSYVSWFAYWGQGTLVTVSS
VL: QAVVTQEPSLTVSPGGTVTLTCRSSTGAVTTSNYANWVQQKPGQAPRGLIGGTNKRAPGTPARFSGSLLGGKAALTLSGAQPEDEAEYYCALWYSNLWVFGGGTKLTVLG
modifications: pAF at HK129 (Kabat) conjugated to a bifunctional linker carrying folate and a linear 5K PEG (oxime)
notes: From E. coli; also called Fab1-5KPEG-Folate
EC50 (human CD3 [10]): 5 nM
Fold reduction in binding (vs Fab1-HK129-Folate) (human CD3 [10]): 1.9 fold
FRα binding affinity [1]: 129 nM
Affinity ratio (FRα:CD3) [4]: 26
EC50 (human CD3 [5]): 5.27 nM
EC50 (cyno CD3 [11]): 2.46 nM
Fold reduction in binding (vs Fab1-HK129-Folate) (cyno CD3 [11]): 1.7 fold
Bmax (human CD3 [6]): 23400
Kd (human CD3 [6]): 2.34 nM
Bmax (cyno CD3 [7]): 19900
Kd (cyno CD3 [7]): 3.31 nM
CD3 binding affinity (human CD3 [8]): 5 nM
Bmax [9]: 134000
Kd [9]: 3.69 nM

B3: Fab8-HK129-Folate (Fab, V domains shown)
VH: EVQLVESGGGLVQPGGSLRLSCAASGFTFNTYAMNWVRQAPGKGLEWVGRIRSKYNNYATYYADSVKDRFTISRDDSKNILYLQMNSLKTEDTAVYYCVRHGNFGNSYVSWFAYWGQGTLVTVSS
VL: QAVVTQEPSLTVSPGGTVTLTCRSSTGAVTTSNYANWFQQKPGQAPRGLIGGTNKRAPGVPARFSGSLLGGKAALTLSGAQPEDEAEYYCALWYSNLWVFGGGTKLTVLG
modifications: pAF at HK129 (Kabat) conjugated to folate (oxime)
notes: also called Fab8 (E. coli, folate-conjugated)
EC50 (human CD3 [12]): 78.3 nM
EC50 (cyno CD3 [13]): 130 nM

B4: Fab1-HK129-LK172-BiFolate (Fab, V domains shown)
VH: EVQLVESGGGLVQPGGSLRLSCAASGFTFNTYAMNWVRQAPGKGLEWVARIRSKYNNYATYYADSVKDRFTISRDDSKNILYLQMNSLKTEDTAVYYCVRHGNFGNSYVSWFAYWGQGTLVTVSS
VL: QAVVTQEPSLTVSPGGTVTLTCRSSTGAVTTSNYANWVQQKPGQAPRGLIGGTNKRAPGTPARFSGSLLGGKAALTLSGAQPEDEAEYYCALWYSNLWVFGGGTKLTVLG
modifications: pAF at LK172 (Kabat) conjugated to folate (oxime); pAF at HK129 (Kabat) conjugated to folate (oxime)
notes: as for B1
FRα binding affinity [1]: 10 nM
EC50 (human CD3 [2]): 2.85 nM
Fold increase binding (vs Fab1-HK129-Folate) (human CD3 [2]): 0.86 fold
EC50 [3]: 10 nM
Fold increase binding (vs Fab1-HK129-Folate) [3]: 4.4 fold
Affinity ratio (FRα:CD3) [4]: 3.5
CD3 binding affinity (human CD3 [8]): 2.85 nM

B5: Fab1-HK129-pAF (Fab, V domains shown)
VH: EVQLVESGGGLVQPGGSLRLSCAASGFTFNTYAMNWVRQAPGKGLEWVARIRSKYNNYATYYADSVKDRFTISRDDSKNILYLQMNSLKTEDTAVYYCVRHGNFGNSYVSWFAYWGQGTLVTVSS
VL: QAVVTQEPSLTVSPGGTVTLTCRSSTGAVTTSNYANWVQQKPGQAPRGLIGGTNKRAPGTPARFSGSLLGGKAALTLSGAQPEDEAEYYCALWYSNLWVFGGGTKLTVLG
modifications: para-acetyl-phenylalanine (pAF) at HK129 (Kabat)
notes: From E. coli; carries no folate and no PEG; also called Fab1-HK129-pAF1; anti-CD3 Fab1-HK129-pAF control
EC50 (cyno CD3 [14]): 1.15 nM
EC50 (human CD3 [15]): 1.14 nM
EC50 (human CD3 [5]): 1.92 nM
Bmax (human CD3 [6]): 32000
Kd (human CD3 [6]): 1.59 nM
Bmax (cyno CD3 [7]): 26600
Kd (cyno CD3 [7]): 2.67 nM

B6: Fab10-HK129-Folate (Fab, V domains shown)
VH: EVQLVESGGGLVQPGGSLRLSCAASGFTFSTYAMNWVRQAPGKGLEWVARIRSKYNNYATYYADSVKDRFTISRDDSKNILYLQMNSLKTEDTAVYYCVRHGNFGNSYVSWFAYWGQGTLVTVSS
VL: QAVVTQEPSLTVSPGGTVTLTCRSSTGAVTTSNYANWFQQKPGQAPRGLIGGTNKRAPGVPARFSGSLLGGKAALTLSGAQPEDEAEYYCALWYSNLWVFGGGTKLTVLG
modifications: pAF at HK129 (Kabat) conjugated to folate (oxime)
notes: also called Fab10 (E. coli, folate-conjugated)
EC50 (human CD3 [12]): 83.6 nM
EC50 (cyno CD3 [13]): 99.5 nM

B7: Fab7 (vH2.3 / vL2.4), wild type from HEK293 (Fab, V domains shown)
VH: EVQLVESGGGLVQPGGSLRLSCAASGFTFNTYAMNWVRQAPGKGLEWVARIRSKYNNYATYYADSVKDRFTISRDDSKNILYLQMNSLKTEDTAVYYCARHGNFGNSYVSWFAYWGQGTLVTVSS
VL: QAVVTQEPSLTVSPGGTVTLTCRSSTGAVTTSNYANWVQQKPGQAPRGLIGGTNKRAPWVPARFSGSLLGGKAALTLSGAQPEDEAEYYCALWYSNLWVFGGGTKLTVLG
notes: HEK293 supernatant
EC50 (read off the curve) (cyno CD3 [16]): ~2 nM
EC50 (read off the curve) (human CD3 [17]): ~2 nM

B8: Fab7-HK129-Folate (Fab, V domains shown)
VH: EVQLVESGGGLVQPGGSLRLSCAASGFTFNTYAMNWVRQAPGKGLEWVARIRSKYNNYATYYADSVKDRFTISRDDSKNILYLQMNSLKTEDTAVYYCARHGNFGNSYVSWFAYWGQGTLVTVSS
VL: QAVVTQEPSLTVSPGGTVTLTCRSSTGAVTTSNYANWVQQKPGQAPRGLIGGTNKRAPWVPARFSGSLLGGKAALTLSGAQPEDEAEYYCALWYSNLWVFGGGTKLTVLG
modifications: pAF at HK129 (Kabat) conjugated to folate (oxime)
notes: also called Fab7 (E. coli, folate-conjugated)
EC50 (human CD3 [12]): 23.4 nM
EC50 (cyno CD3 [13]): 20.2 nM

B9: Fab8 (vH2.2 / vL2.1), wild type from HEK293 (Fab, V domains shown)
VH: EVQLVESGGGLVQPGGSLRLSCAASGFTFNTYAMNWVRQAPGKGLEWVGRIRSKYNNYATYYADSVKDRFTISRDDSKNILYLQMNSLKTEDTAVYYCVRHGNFGNSYVSWFAYWGQGTLVTVSS
VL: QAVVTQEPSLTVSPGGTVTLTCRSSTGAVTTSNYANWFQQKPGQAPRGLIGGTNKRAPGVPARFSGSLLGGKAALTLSGAQPEDEAEYYCALWYSNLWVFGGGTKLTVLG
notes: HEK293 supernatant
EC50 (read off the curve) (cyno CD3 [16]): ~6 nM

B10: Fab9 (vH1.0 / vL2.1), wild type from HEK293 (Fab, V domains shown)
VH: EVQLVESGGGLVQPGGSLRLSCAASGFTFNTYAMNWVRQAPGKGLEWVGRIRSKYNNYATYYADSVKDRFTISRDDSKNSLYLQMNSLKTEDTAVYYCVRHGNFGNSYVSWFAYWGQGTLVTVSS
VL: QAVVTQEPSLTVSPGGTVTLTCRSSTGAVTTSNYANWFQQKPGQAPRGLIGGTNKRAPGVPARFSGSLLGGKAALTLSGAQPEDEAEYYCALWYSNLWVFGGGTKLTVLG
notes: HEK293 supernatant
EC50 (read off the curve) (human CD3 [17]): ~10 nM

B11: Fab9-HK129-Folate (Fab, V domains shown)
VH: EVQLVESGGGLVQPGGSLRLSCAASGFTFNTYAMNWVRQAPGKGLEWVGRIRSKYNNYATYYADSVKDRFTISRDDSKNSLYLQMNSLKTEDTAVYYCVRHGNFGNSYVSWFAYWGQGTLVTVSS
VL: QAVVTQEPSLTVSPGGTVTLTCRSSTGAVTTSNYANWFQQKPGQAPRGLIGGTNKRAPGVPARFSGSLLGGKAALTLSGAQPEDEAEYYCALWYSNLWVFGGGTKLTVLG
modifications: pAF at HK129 (Kabat) conjugated to folate (oxime)
notes: also called Fab9 (E. coli, folate-conjugated)
EC50 (human CD3 [12]): 69.1 nM
EC50 (cyno CD3 [13]): 93.1 nM
